Experimental data: patent US20120316071A1 (published 2012)
Values belong to the binder of their own block, whether it stands above or below them.

Assays:
[1] = target: T1, rHuman ErbB2/Fc Chimera, CF (R&D Systems Cat#1129-ER) (human, UniProt P04626 23-652); assay: ECL (MSD) multispot binding assay, antigen spotted on plate, 20 nM Fab;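 also: purified Fab incubated 1 h at 20 °C on antigen-spotted plate, bound Fab revealed with TAG detection antibody, ECL read, antigen signal divided by same-well blank, ratio ≥4 counted as hit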
T1 construct: Bought reagent; also called human epidermal growth factor 2 receptor; Fc part of the bought chimera not given

[2] = target: T2, rHuman EGF R/Fc Chimera, CF (R&D Systems Cat#344-ER) (human, UniProt P00533 25-645); assay: as above
T2 construct: Bought reagent; also called epidermal growth factor receptor; Fc part of the bought chimera not given

[3] = target: T3, rHuman HGF R/c-MET/Fc Chimera, CF (R&D Systems Cat#358-MT/CF) (human, UniProt P08581 25-932); assay: as above
T3 construct: Bought reagent; also called HGF R/Fc; hepatocyte growth factor receptor; Fc part of the bought chimera not given

[4] = target: T4, rHuman Notch-1/Fc Chimera, CF (R&D Systems Cat#3647-TK) (human, UniProt P46531 19-526); assay: as above
T4 construct: Bought reagent; Fc part of the bought chimera not given

[5] = target: T5, rHuman CD44/Fc Chimera, CF (R&D Systems Cat#3660-CD) (human, UniProt P16070 21-220); assay: as above
T5 construct: Bought reagent; Fc part of the bought chimera not given

[6] = target: T6, rHuman IGF-1 sR, CF (R&D Systems Cat#391-GR) (human, UniProt P08069 31-932); assay: as above
T6 construct: Bought soluble receptor; also called insulin-like growth factor-1 soluble receptor

[7] = target: T7, rHuman P-Cadherin/Fc Chimera, CF (R&D Systems Cat#861-PC) (human, UniProt P22223 108-654); assay: as above
T7 construct: Bought reagent; Fc part of the bought chimera not given

[8] = target: T8, rHuman Erythropoietin R/Fc Chimera, CF (R&D Systems Cat#963-ER) (human, UniProt P19235 25-250); assay: as above
T8 construct: Bought reagent; also called EPO R; EPO R/Fc; Fc part of the bought chimera not given
T8 sequence (looked up): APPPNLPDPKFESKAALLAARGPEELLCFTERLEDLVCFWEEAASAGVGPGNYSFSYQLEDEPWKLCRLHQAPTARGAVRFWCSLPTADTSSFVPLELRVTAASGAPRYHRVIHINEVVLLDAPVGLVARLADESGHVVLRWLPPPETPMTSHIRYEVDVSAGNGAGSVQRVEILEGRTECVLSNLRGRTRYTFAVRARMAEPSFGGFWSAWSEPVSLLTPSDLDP

[9] = target: T9, Recombinant Human DLL4 (R&D Systems Cat#1506-D4/CF) (human, UniProt Q9NR61 27-524); assay: as above
T9 construct: Bought recombinant protein; also called delta-like protein 4; rHuman DLL4

[10] = target: T10, Recombinant Human DLL4 (R&D Systems Cat#1506-D4/CF) (human, UniProt Q9NR61 27-524); assay: Multispot ECL
T10 construct: bought recombinant protein; also called rHuman DLL4; delta-like protein 4

[11] = target: T11, Recombinant Human DLL4 (delta-like protein 4) (human, UniProt Q9NR61 27-524); assay: ECL (MSD) binding assay, Fab on immobilised recombinant human DLL4
T11 construct: Bought recombinant protein; also called rHuman DLL4

[12] = target: T10, Recombinant Human DLL4 (R&D Systems …); assay: 96-well plate ECL

T3 sequence (P08581 25-932, change not shown): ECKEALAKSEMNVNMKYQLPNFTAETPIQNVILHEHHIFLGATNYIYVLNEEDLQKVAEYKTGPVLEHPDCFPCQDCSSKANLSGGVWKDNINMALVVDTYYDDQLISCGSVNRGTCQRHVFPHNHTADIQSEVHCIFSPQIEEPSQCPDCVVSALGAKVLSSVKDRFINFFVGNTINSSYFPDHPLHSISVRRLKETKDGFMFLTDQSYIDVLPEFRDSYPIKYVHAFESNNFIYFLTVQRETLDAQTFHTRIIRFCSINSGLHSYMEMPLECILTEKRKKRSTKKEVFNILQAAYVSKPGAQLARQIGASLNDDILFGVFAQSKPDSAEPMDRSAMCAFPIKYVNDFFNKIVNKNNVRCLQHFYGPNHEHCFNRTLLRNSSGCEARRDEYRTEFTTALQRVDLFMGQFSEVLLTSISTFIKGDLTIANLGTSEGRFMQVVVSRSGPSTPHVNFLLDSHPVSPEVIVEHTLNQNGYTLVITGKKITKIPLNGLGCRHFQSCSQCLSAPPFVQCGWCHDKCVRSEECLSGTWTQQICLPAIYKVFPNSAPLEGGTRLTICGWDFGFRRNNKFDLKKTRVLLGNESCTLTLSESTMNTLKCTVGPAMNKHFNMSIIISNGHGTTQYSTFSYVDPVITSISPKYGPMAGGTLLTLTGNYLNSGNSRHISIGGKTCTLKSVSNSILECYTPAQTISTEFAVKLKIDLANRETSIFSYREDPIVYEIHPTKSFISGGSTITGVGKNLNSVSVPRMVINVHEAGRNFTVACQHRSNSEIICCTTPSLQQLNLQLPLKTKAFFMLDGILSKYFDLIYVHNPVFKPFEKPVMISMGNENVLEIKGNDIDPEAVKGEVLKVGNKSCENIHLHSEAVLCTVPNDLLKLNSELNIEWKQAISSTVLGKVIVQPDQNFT

B2: Fab VH3-23_IGHD2-21*01>3_IGHJ6*01 H100E/S108P/Y113G Y114T & V2-13_IGLJ2*01 (Fab, V domains shown)
VH: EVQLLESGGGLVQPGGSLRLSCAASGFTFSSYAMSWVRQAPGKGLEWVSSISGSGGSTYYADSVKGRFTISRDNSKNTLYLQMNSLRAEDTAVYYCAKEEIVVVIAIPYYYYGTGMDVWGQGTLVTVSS
VL: SSELTQDPAVSVALGQTVRITCQGDSLRSYYASWYQQKPGQAPVLVIYGKNNRPSGIPDRFSGSSSGNTASLTITGAQAEDEADYYCNSRDSSGNHLVVFGGGTKLTVL
notes: Tested as Fab made in E. coli (VH-CH1 with His and Flag tags; lambda CL); also called EPG Y114T
ECL multispot value [1]: 1.4
ECL multispot value [2]: 1.3
ECL multispot value [3]: 1.8
ECL multispot value [4]: 1.8
ECL multispot value [5]: 1.1
ECL multispot value [6]: 1.1
ECL multispot value [7]: 1.7
ECL multispot value [8]: 2
ECL multispot value [9]: 1.6

B3: Fab VH1-46_IGHD6-6*01_IGHJ1*01 & A27_IGKJ1*01 (Fab, V domains shown)
VH: QVQLVQSGAEVKKPGASVKVSCKASGYTFTSYYMHWVRQAPGQGLEWMGIINPSGGSTSYAQKFQGRVTMTRDTSTSTVYMELSSLRSEDTAVYYCAREEYSSSSAEYFQHWGQGTLVTVSS
VL: not shown
notes: Fab; also called non-Hit
binding result [10]: no binding

B4: Fab VH1-46_IGHD6-6*01_IGHJ1*01 & A27_IGKJ1*01 (Fab, V domains shown)
VH: QVQLVQSGAEVKKPGASVKVSCKASGYTFTSYYMHWVRQAPGQGLEWMGIINPSGGSTSYAQKFQGRVTMTRDTSTSTVYMELSSLRSEDTAVYYCAREEYSSSSAEYFQHWGQGTLVTVSS
VL: not shown
notes: Germline Fab from the combinatorial library, with CH1 (plus His6 and Flag tags) and a kappa constant region from the expression plasmids
binding result [11]: no binding

B6: Fab VH1-46_IGHD6-6*01_IGHJ1*01 & L25_IGKJ1*01 (Fab, V domains shown)
VH: QVQLVQSGAEVKKPGASVKVSCKASGYTFTSYYMHWVRQAPGQGLEWMGIINPSGGSTSYAQKFQGRVTMTRDTSTSTVYMELSSLRSEDTAVYYCAREEYSSSSAEYFQHWGQGTLVTVSS
VL: EIVMTQSPATLSLSPGERATLSCRASQSVSSSYLSWYQQKPGQAPRLLIYGASTRATGIPARFSGSGSGTDFTLTISSLQPEDFAVYYCQQDYNLPPWTFGQGTKVEIKR
notes: Fab; also called non-Hit
binding result [10]: no binding

The next lines start with the values.

ECL multispot value [1]: 1.4
ECL multispot value [2]: 1.2
ECL multispot value [3]: 2.7
ECL multispot value [4]: 1.4
ECL multispot value [5]: 1.1
ECL multispot value [6]: 0.9
ECL multispot value [7]: 1.3
ECL multispot value [8]: 2.3
ECL multispot value [9]: 1.1
B1: Fab VH3-23_IGHD2-21*01>3_IGHJ6*01 H100E/S108P/Y113G Y114P & V2-13_IGLJ2*01 (Fab, V domains shown)
VH: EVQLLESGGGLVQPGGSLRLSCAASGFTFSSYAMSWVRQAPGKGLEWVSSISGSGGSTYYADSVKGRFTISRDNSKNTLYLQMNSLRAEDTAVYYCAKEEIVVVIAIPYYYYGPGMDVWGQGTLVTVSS
VL: SSELTQDPAVSVALGQTVRITCQGDSLRSYYASWYQQKPGQAPVLVIYGKNNRPSGIPDRFSGSSSGNTASLTITGAQAEDEADYYCNSRDSSGNHLVVFGGGTKLTVL
notes: Tested as Fab made in E. coli (VH-CH1 with His and Flag tags; lambda CL); also called EPG Y114P

binding result [11]: no binding
B5: Fab VH1-46_IGHD6-6*01_IGHJ1*01 & L25_IGKJ1*01 (Fab, V domains shown)
VH: QVQLVQSGAEVKKPGASVKVSCKASGYTFTSYYMHWVRQAPGQGLEWMGIINPSGGSTSYAQKFQGRVTMTRDTSTSTVYMELSSLRSEDTAVYYCAREEYSSSSAEYFQHWGQGTLVTVSS
VL: EIVMTQSPATLSLSPGERATLSCRASQSVSSSYLSWYQQKPGQAPRLLIYGASTRATGIPARFSGSGSGTDFTLTISSLQPEDFAVYYCQQDYNLPPWTFGQGTKVEIKR
notes: as for B4

fold ECL signal against the parent Fab [12]: ~2 fold
B7: Fab VH5-51_IGHD5-18*01>3_IGHJ4*01 G100K & V3-4_IGLJ1*01 (Fab, V domains shown)
VH: EVQLVQSGAEVKKPGESLKISCKGSGYSFTSYWIGWVRQMPGKGLEWMGIIYPGDSDTRYSPSFQGQVTISADKSISTAYLQWSSLKASDTAMYYCARRKYSYGYDYFDYWGQGTLVTVSS
VL: QTVVTQEPSFSVSPGGTVTLTCGLSSGSVSTSYYPSWYQQTPGQAPRTLIYSTNTRSSGVPDRFSGSILGNKAALTITGAQADDESDYYCVLYMGSGISYVFGTGTKVTVL
notes: Fab

fold ECL signal against the parent Fab [12]: ~2 fold
B8: Fab VH5-51_IGHD5-18*01>3_IGHJ4*01 G104T & V3-4_IGLJ1*01 (Fab, V domains shown)
VH: EVQLVQSGAEVKKPGESLKISCKGSGYSFTSYWIGWVRQMPGKGLEWMGIIYPGDSDTRYSPSFQGQVTISADKSISTAYLQWSSLKASDTAMYYCARRGYSYTYDYFDYWGQGTLVTVSS
VL: QTVVTQEPSFSVSPGGTVTLTCGLSSGSVSTSYYPSWYQQTPGQAPRTLIYSTNTRSSGVPDRFSGSILGNKAALTITGAQADDESDYYCVLYMGSGISYVFGTGTKVTVL
notes: Fab
